Reference: paper PMC1831719, “Elucidating the Ticking of an In Vitro Circadian Clockwork” (PLoS Biology, 2007)

Target: the molecule itself
Assay: negative-stain electron microscopy with image classification; aliquots every 3 h from the oscillating KaiA/KaiB/KaiC mixture (50 ng/ul KaiA, 50 ng/ul KaiB, 200 ng/ul KaiC, 1 mM ATP, 30 °C); 0.75% uranyl formate; particles sorted into four meta classes at seven phases

B1: KaiC (natural protein, S. elongatus, UniProt Q79PF4 1-519, looked up)
chain: MTSAEMTSPNNNSEHQAIAKMRTMIEGFDDISHGGLPIGRSTLVSGTSGTGKTLFSIQFLYNGIIEFDEPGVFVTFEETPQDIIKNARSFGWDLAKLVDEGKLFILDASPDPEGQEVVGGFDLSALIERINYAIQKYRARRVSIDSVTSVFQQYDASSVVRRELFRLVARLKQIGATTVMTTERIEEYGPIARYGVEEFVSDNVVILRNVLEGERRRRTLEILKLRGTSHMKGEYPFTITDHGINIFPLGAMRLTQRSSNVRVSSGVVRLDEMCGGGFFKDSIILATGATGTGKTLLVSRFVENACANKERAILFAYEESRAQLLRNAYSWGMDFEEMERQNLLKIVCAYPESAGLEDHLQIIKSEINDFKPARIAIDSLSALARGVSNNAFRQFVIGVTGYAKQEEITGLFTNTSDQFMGAHSITDSHISTITDTIILLQYVEIRGEMSRAINVFKMRGSWHDKAIREFMISDKGPDIKDSFRNFERIISGSPTRITVDEKSELSRIVRGVQEKGPES
notes: KaiC, circadian clock protein of Synechococcus elongatus; In the cycling reaction KaiC oscillates between hypo- and hyperphosphorylated forms (sites T426, S431, T432); also called KaiC hexamer; P-KaiC; source: E. coli, purified
**Q.** For B1, which “stoichiometry N” value is on record?
**A.** Its value is 6.
